Reference: PMC3343374
pKd: −log10 of the molar value. Where “and” joins values, the source holds several entries; their conditions need not be identical. Identical values can stand only once. Like-named read-outs stand apart in the source and are kept apart here. Each block holds one substance with its values, some of them ahead of it.

How the values were obtained:
[1] = target: GluA2S amino-terminal domain expressed in HEK293S GnTI- cells (high mannose glycans); assay: AUC
[2] = target: GluA2S amino-terminal domain expressed in HEK293S GnTI- cells (high mannose glycans); assay: SEC-MALS
[3] = target: FAM-labeled, EndoH-digested GluA2S amino-terminal domain; assay: AUC
[4] = target: FAM-labeled, EndoH-digested GluA2S amino-terminal domain; assay: AUC; remark: listed apart in the source
[5] = target: FAM-labeled, EndoH-digested GluA2S amino-terminal domain; assay: AUC; remark: listed apart in the source
[6] = target: GluA2S amino-terminal domain expressed in GnTI- cells and digested with EndoH; assay: AUC
[7] = target: GluA2S amino-terminal domain expressed in GnTI- cells and digested with EndoH; assay: AUC; remark: listed apart in the source
[8] = target: DyLight405-labeled, EndoH-digested GluA2S amino-terminal domain; assay: fluorescence polarisation
[9] = target: GluA2S amino-terminal domain expressed in GnTI- cells and digested with EndoH; assay: AUC; remark: listed apart in the source
[10] = target: GluA2S amino-terminal domain expressed in GnTI- cells and digested with EndoH; assay: AUC; remark: listed apart in the source
[11] = target: GluA2S amino-terminal domain expressed in GnTI- cells and digested with EndoH; assay: dynamic light scattering
[12] = target: GluA2S amino-terminal domain expressed in GnTI- cells and digested with EndoH; assay: SEC-MALS
[13] = target: DyLight405-labeled, EndoH-digested GluA2S amino-terminal domain; assay: fluorescence polarisation; remark: listed apart in the source
[14] = target: GluA2S amino-terminal domain expressed in GnTI- cells and digested with EndoH; assay: AUC; remark: listed apart in the source
[15] = target: GluA2S amino-terminal domain expressed in GnTI- cells and digested with EndoH; assay: AUC; remark: listed apart in the source
[16] = target: GluA3 amino-terminal domain expressed in HEK293T cells (UniProt P19492); assay: AUC
[17] = target: GluA3 amino-terminal domain expressed in HEK293T cells (UniProt P19492); assay: AUC; remark: listed apart in the source
[18] = target: GluA2S amino-terminal domain expressed in HEK293T cells (complex glycosylation); assay: AUC
[19] = target: GluA2S amino-terminal domain expressed in HEK293T cells (complex glycosylation); assay: dynamic light scattering
[20] = target: GluA2S amino-terminal domain expressed in HEK293T cells (complex glycosylation); assay: SEC-MALS
[21] = target: GluA2S amino-terminal domain expressed in HEK293T cells (complex glycosylation); assay: AUC; remark: listed apart in the source

GluA2S amino-terminal domain expressed in GnTI- cells and digested with EndoH, sequence (P19491 22-883): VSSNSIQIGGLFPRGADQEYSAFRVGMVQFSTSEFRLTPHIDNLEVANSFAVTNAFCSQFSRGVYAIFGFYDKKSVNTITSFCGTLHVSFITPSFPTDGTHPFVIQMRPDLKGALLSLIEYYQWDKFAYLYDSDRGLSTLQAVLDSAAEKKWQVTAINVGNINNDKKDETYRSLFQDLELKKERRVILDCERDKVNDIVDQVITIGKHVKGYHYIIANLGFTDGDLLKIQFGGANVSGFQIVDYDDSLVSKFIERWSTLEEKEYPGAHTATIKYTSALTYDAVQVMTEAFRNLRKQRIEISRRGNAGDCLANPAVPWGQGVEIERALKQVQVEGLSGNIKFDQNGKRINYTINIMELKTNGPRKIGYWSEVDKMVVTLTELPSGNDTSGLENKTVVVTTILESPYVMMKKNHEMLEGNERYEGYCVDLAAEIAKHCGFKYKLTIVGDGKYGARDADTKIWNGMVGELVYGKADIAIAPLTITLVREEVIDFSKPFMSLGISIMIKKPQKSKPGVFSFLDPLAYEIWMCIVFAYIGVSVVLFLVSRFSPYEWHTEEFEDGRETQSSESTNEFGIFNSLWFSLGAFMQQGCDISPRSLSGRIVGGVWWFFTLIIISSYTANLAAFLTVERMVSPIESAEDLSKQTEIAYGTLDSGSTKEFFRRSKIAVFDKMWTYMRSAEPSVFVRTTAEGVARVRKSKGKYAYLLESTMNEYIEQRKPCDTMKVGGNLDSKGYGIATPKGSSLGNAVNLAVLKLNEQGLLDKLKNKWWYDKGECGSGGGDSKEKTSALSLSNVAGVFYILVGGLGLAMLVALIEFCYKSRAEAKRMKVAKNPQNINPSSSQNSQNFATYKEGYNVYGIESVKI
FAM-labeled, EndoH-digested GluA2S amino-terminal domain, sequence (P19491 22-883): as above
GluA2S amino-terminal domain expressed in HEK293T cells (complex glycosylation), sequence (P19491 22-883, one chain of several): as the sequence (P19491 22-883) above
GluA2S amino-terminal domain expressed in HEK293S GnTI- cells (high mannose glycans), sequence (P19491 22-883): as above

Substance: GluA2S amino-terminal domain expressed in GnTI- cells and digested with EndoH (domain or fragment)
pKd [6]: 8.25 and 8.08 and 8.01
pKd [7]: 7.52
pKd [8]: 7.97 and 7.95 and 8.07
pKd [9]: 6.24
pKd [10]: < 2.60
stoichiometry N [11]: 2
stoichiometry N [12]: 2
pKd [13]: 8.01
pKd [14]: 6.80 and 6.55
pKd [15]: 7.77

Substance: GluA3 amino-terminal domain expressed in HEK293T cells (from UniProt P19492 23-888) (domain or fragment)
pKd [16]: < 3.79
pKd [17]: 5.51

Substance: GluA2S amino-terminal domain expressed in HEK293T cells (complex glycosylation) (domain or fragment)
pKd [18]: 8.08
stoichiometry N [19]: 2
stoichiometry N [20]: 2
pKd [21]: 8.22

Other lines, results leading:

pKd [1]: 7.96
stoichiometry N [2]: 2
Substance: GluA2S amino-terminal domain expressed in HEK293S GnTI- cells (high mannose glycans) (domain or fragment)

pKd [3]: 7.59
pKd [4]: 7.83
pKd [5]: 8.28
Substance: FAM-labeled, EndoH-digested GluA2S amino-terminal domain (domain or fragment)
